Test [1] relates to GmRLK18-1 LRR domain. Nature of the test: Far Western analysis of total root proteins probed with the LRR domain. Type of test: binding, Glycine max. Conditions: 2 D gels of total root proteins of SCN inoculated plants, identified by MS/MS; cyclophilin at 10 dai, methionine synthase at 28 dai.
Excerpt: For Far-Westerns the LRR domain was used as a probe to filters transferred from 1 or 2 D gels. As the secondary probe, anti-his antibody conjugated to HRP (1–10,000 dilution; Invitrogen, Carlsbad CA) was used. Spots and bands were picked manually and the proteins in them digested with trypsin and identified by direct infusion MS/MS following the methods in [31].
The target of test [2] is GmRLK18-1 LRR domain expressed in E. coli (soybean (Glycine max)). Nature of the test: native gel or EMSA; 12% (w/v) non-denatured PAGE of purified, refolded GmRLK18-1-LRR from E. coli; bands eluted and run again on SDS-PAGE.
The target in test [3] is GmRLK08-1 LRR domain expressed in E. coli (soybean (Glycine max)). Nature of the test: fluorescence polarisation; FITC-labelled peptides in 20 mM phosphate buffer pH 6.9 in a cuvette, 5 nM aliquots, increase in polarisation; baseline of non-CLE and non-LRR peptides subtracted; Kd from double reciprocal Scatchard plots; 3 repeats with 3 protein preparations; apparent for peptide L.

Test [4] has as its target GmRLK18-1 LRR domain expressed in E. coli (soybean (Glycine max)). The test is described as above.

No end group written: not given here.

As for “cyclophilin: soybean root cyclophilin, 182 amino acids, matches gi 17981611, 19,392 d, pI 8.38”, the “binding to the LRR domain in Far Western (in words)” value in test [1] is listed as “avidly bound to the LRR”.

As for “GmRLK18-1 LRR domain expressed in E. coli (domain or fragment)”, the stoichiometry N in test [2] came to 2.

Take RLAPGGPDPQHN (not fully specified (N-terminus); also: labeled with FITC) [CLE peptide 2]: the Kd in test [3] turned out to be 96 nM; in test [4], 45 nM.

Turning to RLAPEGPDPHHN (not fully specified (N-terminus); also: labeled with FITC) [CLE peptide 30], the figures for the Kd in test [3] and in test [4] were 84 nM and 44 nM, respectively.

As for CTLSRLKTLDISNNALNGNLPATLSNLS (not fully specified (N-terminus); also: labeled with FITC) [LRR peptide L of GmRLK18-1], the Kd in test [3] turned out to be 135 nM; in test [4] it was 36 nM.

With RAELDFNYMSKRRVPNGPDPIHNRRAGNSGR (not fully specified (N-terminus); also: labeled with FITC) [CLE peptide 36L], the Kd is 51 nM in test [3] and 49 nM in test [4].

For KRLSPSGPDPHHH (not fully specified (N-terminus); also: labeled with FITC) [CLE peptide N], the Kd in test [3] amounted to 78 nM; in test [4], 30 nM.

RTVPSGPDPLHH (not fully specified (N-terminus); also: labeled with FITC) [CLE peptide 3]: the Kd was found to be 50 nM in test [3] and 29 nM in test [4].

Take KGLGLHEEELRTVPSGPDPLHHHVNPPRQPR (not fully specified (N-terminus); also: labeled with FITC) [CLE peptide 3L]: the Kd is 142 nM in test [3] and 65 nM in test [4].

Regarding SKRRVPNGPDPIHNR (not fully specified (N-terminus); also: labeled with FITC) [CLE peptide 36], the Kd worked out at 52 nM in test [3] and 14 nM in test [4].

For DLPLAPADRLAGGPDPQHNVRAPPRKP (not fully specified (N-terminus); also: labeled with FITC) [CLE peptide 2L], the values for the Kd in test [3] and in test [4] were 338 nM and 142 nM, respectively.

For AHEVPSGPNPISNR (not fully specified (N-terminus); also: labeled with FITC) [CLE peptide T], the Kd was determined as 204 nM in test [3] and 20 nM in test [4].

These data come from article PMC3626623, “Homo-dimerization and ligand binding by the leucine-rich repeat domain at RHG1/RFS2 underlying resistance to two soybean pathogens” (BMC Plant Biology, 2013).
